For two molecules, Kd results are on record in article PMC4646805 (Science Advances, 2015).

Residue numbers refer to the chain shown, from its start. Names may count otherwise. Read-outs that look alike come from different tables or passages of the source.

Test [1] has as its target T1, rabbit skeletal muscle actin, pyrene-labelled, phalloidin-stabilized (rabbit, UniProt P68135 1-377, pyrene (labelled with pyrene-maleimide)). Briefly: other fluorescence titration.
For test [2], the target named is T1, rabbit skeletal muscle actin, …. The test is described as follows: other fluorescence titration. The source holds these as a separate data set.

B1: wild-type human β-cardiac myosin short subfragment 1 (sS1) with C-terminal 6× His tag (complex)
chain 1: MGDSEMAVFGAAAPYLRKSEKERLEAQTRPFDLKKDVFVPDDKQEFVKAKIVSREGGKVTAETEYGKTVTVKEDQVMQQNPPKFDKIEDMAMLTFLHEPAVLYNLKDRYGSWMIYTYSGLFCVTVNPYKWLPVYTPEVVAAYRGKKRSEAPPHIFSISDNAYQYMLTDRENQSILITGESGAGKTVNTKRVIQYFAVIAAIGDRSKKDQSPGKGTLEDQIIQANPALEAFGNAKTVRNDNSSRFGKFIRIHFGATGKLASADIETYLLEKSRVIFQLKAERDYHIFYQILSNKKPELLDMLLITNNPYDYAFISQGETTVASIDDAEELMATDNAFDVLGFTSEEKNSMYKLTGAIMHFGNMKFKLKQREEQAEPDGTEEADKSAYLMGLNSADLLKGLCHPRVKVGNEYVTKGQNVQQVIYATGALAKAVYERMFNWMVTRINATLETKQPRQYFIGVLDIAGFEIFDFNSFEQLCINFTNEKLQQFFNHHMFVLEQEEYKKEGIEWTFIDFGMDLQACIDLIEKPMGIMSILEEECMFPKATDMTFKAKLFDNHLGKSANFQKPRNIKGKPEAHFSLIHYAGIVDYNIIGWLQKNKDPLNETVVGLYQKSSLKLLSTLFANYAGADAPIEKGKGKAKKGSSFQTVSALHRENLNKLMTNLRSTHPHFVRCIIPNETKSPGVMDNPLVMHQLRCNGVLEGIRICRKGFPNRILYGDFRQRYRILNPAAIPEGQFIDSRKGAEKLLSSLDIDHNQYKFGHTKVFFKAGLLGLLEEMRDERLSRIITRIQAQSRGVLARMEYKKLLERR
chain 2: not shown
On to B1, for which the Kd was found to be 10 ± 1.8 nM in test [1] and 23.4 ± 2.5 nM in test [2].

B2: R403Q human β-cardiac myosin short subfragment 1 (sS1) with C-terminal 6× His tag (complex)
chain 1: B1 chain 1 with R403Q
chain 2: not shown
Regarding B2, the dissociation constant Kd in test [1] was 19.7 ± 6.2 nM; in test [2], 63.2 ± 16.7 nM.
